PMC9482650, “Quantitative fragmentomics allow affinity mapping of interactomes” (Nature Communications, 2022)

molecular target: T1, SHANK1, Q9Y566; assay: holdup assay; design: key: below the threshold = too weak to quantify, mostly under pKd 3.1 to 4; details: plain residues with an end cap or a label only (N-terminal biotin on a linker: ado-ado)
T1 sequence (Q9Y566 658-767, limits assumed, looked up): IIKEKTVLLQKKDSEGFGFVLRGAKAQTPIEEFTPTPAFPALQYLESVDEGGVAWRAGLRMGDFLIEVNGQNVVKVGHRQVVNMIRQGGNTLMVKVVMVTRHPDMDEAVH

| Binder | pKd |
| --- | --- |
| NRVDSKETEC [ADAM17, P78536] | below the threshold |
| AEDEEIQTKM [UNC93A, Q86WB7] | 5.21 |

molecular target: T2, APBA3_1, O96018; assay: holdup assay; design: key: below the threshold = too weak to quantify, mostly under pKd 3.1 to 4; details: plain residues with an end cap or a label only (N-terminal biotin on a linker: ado-ado)
T2 sequence (O96018 389-490, limits assumed, looked up): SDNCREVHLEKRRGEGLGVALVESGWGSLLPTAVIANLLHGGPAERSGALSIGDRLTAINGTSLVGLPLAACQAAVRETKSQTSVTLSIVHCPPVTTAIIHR

| Binder | pKd |
| --- | --- |
| NRVDSKETEC [ADAM17, P78536] | below the threshold |
| AEDEEIQTKM [UNC93A, Q86WB7] | below the threshold |

molecular target: GOPC, Q9HD26; assay: holdup assay; design: key: below the threshold = too weak to quantify, mostly under pKd 3.1 to 4; details: plain residues with an end cap or a label only (N-terminal biotin on a linker: ado-ado)

| Binder | pKd |
| --- | --- |
| NRVDSKETEC [ADAM17, P78536] | below the threshold |
| AEDEEIQTKM [UNC93A, Q86WB7] | below the threshold |

molecular target: T3, SNTG2, Q9NY99; assay: holdup assay; design: key: below the threshold = too weak to quantify, mostly under pKd 3.1 to 4; details: plain residues with an end cap or a label only (N-terminal biotin on a linker: ado-ado)
T3 sequence (Q9NY99 68-166, limits assumed, looked up): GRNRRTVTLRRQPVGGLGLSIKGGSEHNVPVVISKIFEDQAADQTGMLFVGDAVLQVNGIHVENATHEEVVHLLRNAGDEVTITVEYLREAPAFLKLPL

| Binder | pKd |
| --- | --- |
| NRVDSKETEC [ADAM17, P78536] | 4.06 |
| AEDEEIQTKM [UNC93A, Q86WB7] | below the threshold |

molecular target: T4, APBA2_1, Q99767; assay: holdup assay; design: key: below the threshold = too weak to quantify, mostly under pKd 3.1 to 4; details: plain residues with an end cap or a label only (N-terminal biotin on a linker: ado-ado)
T4 sequence (Q99767 563-664, limits assumed, looked up): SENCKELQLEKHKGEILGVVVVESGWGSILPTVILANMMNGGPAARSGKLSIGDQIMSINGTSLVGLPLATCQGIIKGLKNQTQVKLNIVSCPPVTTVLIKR

| Binder | pKd |
| --- | --- |
| NRVDSKETEC [ADAM17, P78536] | below the threshold |
| AEDEEIQTKM [UNC93A, Q86WB7] | below the threshold |

molecular target: T5, GRIP1_5, Q9Y3R0; assay: holdup assay; design: key: below the threshold = too weak to quantify, mostly under pKd 3.1 to 4; details: plain residues with an end cap or a label only (N-terminal biotin on a linker: ado-ado)
T5 sequence (Q9Y3R0 568-668, limits assumed, looked up): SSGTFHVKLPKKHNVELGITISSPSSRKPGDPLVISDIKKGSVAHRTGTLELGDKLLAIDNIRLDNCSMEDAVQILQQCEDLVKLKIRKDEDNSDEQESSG

| Binder | pKd |
| --- | --- |
| NRVDSKETEC [ADAM17, P78536] | below the threshold |
| AEDEEIQTKM [UNC93A, Q86WB7] | below the threshold |

molecular target: T6, SNTG1, Q9NSN8; assay: holdup assay; design: key: below the threshold = too weak to quantify, mostly under pKd 3.1 to 4; details: plain residues with an end cap or a label only (N-terminal biotin on a linker: ado-ado)
T6 sequence (Q9NSN8 52-150, limits assumed, looked up): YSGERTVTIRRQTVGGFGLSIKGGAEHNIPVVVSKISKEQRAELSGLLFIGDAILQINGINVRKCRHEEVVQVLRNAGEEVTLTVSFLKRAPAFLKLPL

| Binder | pKd |
| --- | --- |
| NRVDSKETEC [ADAM17, P78536] | 3.63 |
| AEDEEIQTKM [UNC93A, Q86WB7] | below the threshold |

molecular target: DLG1_3, Q12959; assay: holdup assay; design: key: below the threshold = too weak to quantify, mostly under pKd 3.1 to 4; details: plain residues with an end cap or a label only (N-terminal biotin on a linker: ado-ado)
Sequence (Q12959 457-571): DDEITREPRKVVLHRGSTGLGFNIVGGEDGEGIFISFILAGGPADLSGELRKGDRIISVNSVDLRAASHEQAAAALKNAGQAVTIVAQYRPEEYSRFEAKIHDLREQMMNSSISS

| Binder | pKd |
| --- | --- |
| NRVDSKETEC [ADAM17, P78536] | 3.71 |
| AEDEEIQTKM [UNC93A, Q86WB7] | below the threshold |

molecular target: MAGI1_1, Q96QZ7; assay: holdup assay; design: key: below the threshold = too weak to quantify, mostly under pKd 3.1 to 4; details: plain residues with an end cap or a label only (N-terminal biotin on a linker: ado-ado)
Sequence (Q96QZ7 1-106): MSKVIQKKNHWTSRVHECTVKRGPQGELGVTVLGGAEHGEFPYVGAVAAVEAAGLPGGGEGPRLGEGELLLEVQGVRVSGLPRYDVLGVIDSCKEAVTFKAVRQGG

| Binder | pKd |
| --- | --- |
| NRVDSKETEC [ADAM17, P78536] | 3.53 |
| AEDEEIQTKM [UNC93A, Q86WB7] | below the threshold |

molecular target: T7, APBA1_1, Q02410; assay: holdup assay; design: key: below the threshold = too weak to quantify, mostly under pKd 3.1 to 4; details: plain residues with an end cap or a label only (N-terminal biotin on a linker: ado-ado)
T7 sequence (Q02410 651-752, limits assumed, looked up): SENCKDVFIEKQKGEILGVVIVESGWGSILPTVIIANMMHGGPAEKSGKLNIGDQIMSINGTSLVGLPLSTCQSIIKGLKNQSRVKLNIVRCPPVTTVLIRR

| Binder | pKd |
| --- | --- |
| NRVDSKETEC [ADAM17, P78536] | below the threshold |
| AEDEEIQTKM [UNC93A, Q86WB7] | below the threshold |

molecular target: DLG2_3, Q15700; assay: holdup assay; design: key: below the threshold = too weak to quantify, mostly under pKd 3.1 to 4; details: plain residues with an end cap or a label only (N-terminal biotin on a linker: ado-ado)

| Binder | pKd |
| --- | --- |
| NRVDSKETEC [ADAM17, P78536] | 3.97 |
| AEDEEIQTKM [UNC93A, Q86WB7] | below the threshold |

molecular target: AHNAK1, Q09666; assay: holdup assay; design: key: below the threshold = too weak to quantify, mostly under pKd 3.1 to 4; details: plain residues with an end cap or a label only (N-terminal biotin on a linker: ado-ado)
Sequence (Q09666 4-100): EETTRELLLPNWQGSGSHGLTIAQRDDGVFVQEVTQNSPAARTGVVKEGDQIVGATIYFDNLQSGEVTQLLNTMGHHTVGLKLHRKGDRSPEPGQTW

| Binder | pKd |
| --- | --- |
| NRVDSKETEC [ADAM17, P78536] | below the threshold |
| AEDEEIQTKM [UNC93A, Q86WB7] | below the threshold |

molecular target: T8, MPDZ_5, O75970; assay: holdup assay; design: key: below the threshold = too weak to quantify, mostly under pKd 3.1 to 4; details: plain residues with an end cap or a label only (N-terminal biotin on a linker: ado-ado)
T8 sequence (O75970 695-796, limits assumed, looked up): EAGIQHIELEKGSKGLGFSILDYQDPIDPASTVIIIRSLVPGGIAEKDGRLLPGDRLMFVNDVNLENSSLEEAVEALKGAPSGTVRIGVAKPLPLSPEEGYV

| Binder | pKd |
| --- | --- |
| NRVDSKETEC [ADAM17, P78536] | below the threshold |
| AEDEEIQTKM [UNC93A, Q86WB7] | below the threshold |

molecular target: GRIP2_6, Q9C0E4; assay: holdup assay; design: key: below the threshold = too weak to quantify, mostly under pKd 3.1 to 4; details: plain residues with an end cap or a label only (N-terminal biotin on a linker: ado-ado)
Sequence (Q9C0E4 648-740): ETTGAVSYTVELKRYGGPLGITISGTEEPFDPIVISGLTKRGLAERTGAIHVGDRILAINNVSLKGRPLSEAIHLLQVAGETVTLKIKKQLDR

| Binder | pKd |
| --- | --- |
| NRVDSKETEC [ADAM17, P78536] | below the threshold |
| AEDEEIQTKM [UNC93A, Q86WB7] | below the threshold |

molecular target: T9, GRIP1_2, Q9Y3R0; assay: holdup assay; design: key: below the threshold = too weak to quantify, mostly under pKd 3.1 to 4; details: plain residues with an end cap or a label only (N-terminal biotin on a linker: ado-ado)
T9 sequence (Q9Y3R0 145-248, limits assumed, looked up): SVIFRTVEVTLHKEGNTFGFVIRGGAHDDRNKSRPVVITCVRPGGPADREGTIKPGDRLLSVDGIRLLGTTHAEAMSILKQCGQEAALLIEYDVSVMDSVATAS

| Binder | pKd |
| --- | --- |
| NRVDSKETEC [ADAM17, P78536] | 3.59 |
| AEDEEIQTKM [UNC93A, Q86WB7] | below the threshold |

molecular target: T10, NHERF3_1, Q5T2W1; assay: holdup assay; design: key: below the threshold = too weak to quantify, mostly under pKd 3.1 to 4; details: plain residues with an end cap or a label only (N-terminal biotin on a linker: ado-ado)
T10 sequence (Q5T2W1 4-100, limits assumed, looked up): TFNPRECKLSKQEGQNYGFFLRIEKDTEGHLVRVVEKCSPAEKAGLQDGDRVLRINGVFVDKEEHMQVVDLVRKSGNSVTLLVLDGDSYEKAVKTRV

| Binder | pKd |
| --- | --- |
| NRVDSKETEC [ADAM17, P78536] | 3.81 |
| AEDEEIQTKM [UNC93A, Q86WB7] | 5.39 |

molecular target: PARD3_3, Q8TEW0; assay: holdup assay; design: key: below the threshold = too weak to quantify, mostly under pKd 3.1 to 4; details: plain residues with an end cap or a label only (N-terminal biotin on a linker: ado-ado)
Sequence (Q8TEW0 582-685): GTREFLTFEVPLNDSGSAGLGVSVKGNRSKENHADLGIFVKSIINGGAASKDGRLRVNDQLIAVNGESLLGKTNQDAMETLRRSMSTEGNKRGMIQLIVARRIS

| Binder | pKd |
| --- | --- |
| NRVDSKETEC [ADAM17, P78536] | below the threshold |
| AEDEEIQTKM [UNC93A, Q86WB7] | below the threshold |

molecular target: T11, TJP3_3, O95049; assay: holdup assay; design: key: below the threshold = too weak to quantify, mostly under pKd 3.1 to 4; details: plain residues with an end cap or a label only (N-terminal biotin on a linker: ado-ado)
T11 sequence (O95049 375-456, limits assumed, looked up): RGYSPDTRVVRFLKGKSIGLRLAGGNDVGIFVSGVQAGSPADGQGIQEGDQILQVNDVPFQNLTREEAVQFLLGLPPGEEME

| Binder | pKd |
| --- | --- |
| NRVDSKETEC [ADAM17, P78536] | below the threshold |
| AEDEEIQTKM [UNC93A, Q86WB7] | below the threshold |

molecular target: GORASP1, Q9BQQ3; assay: holdup assay; design: key: below the threshold = too weak to quantify, mostly under pKd 3.1 to 4; details: plain residues with an end cap or a label only (N-terminal biotin on a linker: ado-ado)
Sequence (Q9BQQ3 1-208): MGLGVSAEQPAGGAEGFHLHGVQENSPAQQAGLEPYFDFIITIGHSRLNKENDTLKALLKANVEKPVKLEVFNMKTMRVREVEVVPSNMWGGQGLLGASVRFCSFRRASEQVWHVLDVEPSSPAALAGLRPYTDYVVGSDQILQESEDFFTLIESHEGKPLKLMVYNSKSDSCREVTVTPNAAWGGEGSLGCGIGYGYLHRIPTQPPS

| Binder | pKd |
| --- | --- |
| NRVDSKETEC [ADAM17, P78536] | below the threshold |
| AEDEEIQTKM [UNC93A, Q86WB7] | below the threshold |

molecular target: T12, SNTB1, Q13884; assay: holdup assay; design: key: below the threshold = too weak to quantify, mostly under pKd 3.1 to 4; details: plain residues with an end cap or a label only (N-terminal biotin on a linker: ado-ado)
T12 sequence (Q13884 107-205, limits assumed, looked up): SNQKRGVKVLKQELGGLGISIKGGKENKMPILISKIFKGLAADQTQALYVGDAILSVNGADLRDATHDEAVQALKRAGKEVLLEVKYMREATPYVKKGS

| Binder | pKd |
| --- | --- |
| NRVDSKETEC [ADAM17, P78536] | 4.87 |
| AEDEEIQTKM [UNC93A, Q86WB7] | below the threshold |

molecular target: Inadl_9, Q8NI35; assay: holdup assay; design: key: below the threshold = too weak to quantify, mostly under pKd 3.1 to 4; details: plain residues with an end cap or a label only (N-terminal biotin on a linker: ado-ado)
Sequence (Q8NI35 1530-1615): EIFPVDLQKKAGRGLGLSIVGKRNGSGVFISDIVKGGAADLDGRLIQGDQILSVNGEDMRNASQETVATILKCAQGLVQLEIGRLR

| Binder | pKd |
| --- | --- |
| NRVDSKETEC [ADAM17, P78536] | below the threshold |
| AEDEEIQTKM [UNC93A, Q86WB7] | below the threshold |

molecular target: GRID2IP_2, A4D2P6; assay: holdup assay; design: key: below the threshold = too weak to quantify, mostly under pKd 3.1 to 4; details: plain residues with an end cap or a label only (N-terminal biotin on a linker: ado-ado)
Sequence (A4D2P6 272-370): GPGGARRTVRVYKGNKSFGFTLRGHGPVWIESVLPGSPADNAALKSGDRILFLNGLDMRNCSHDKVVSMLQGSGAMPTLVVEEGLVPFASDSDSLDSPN

| Binder | pKd |
| --- | --- |
| NRVDSKETEC [ADAM17, P78536] | below the threshold |
| AEDEEIQTKM [UNC93A, Q86WB7] | 3.77 |

molecular target: GRIP2_7, Q9C0E4; assay: holdup assay; design: key: below the threshold = too weak to quantify, mostly under pKd 3.1 to 4; details: plain residues with an end cap or a label only (N-terminal biotin on a linker: ado-ado)
Sequence (Q9C0E4 934-1023): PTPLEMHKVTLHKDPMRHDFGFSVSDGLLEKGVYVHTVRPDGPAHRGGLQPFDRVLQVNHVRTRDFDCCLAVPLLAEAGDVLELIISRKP

| Binder | pKd |
| --- | --- |
| NRVDSKETEC [ADAM17, P78536] | below the threshold |
| AEDEEIQTKM [UNC93A, Q86WB7] | below the threshold |

molecular target: Inadl_8, Q8NI35; assay: holdup assay; design: key: below the threshold = too weak to quantify, mostly under pKd 3.1 to 4; details: plain residues with an end cap or a label only (N-terminal biotin on a linker: ado-ado)
Sequence (Q8NI35 1425-1530): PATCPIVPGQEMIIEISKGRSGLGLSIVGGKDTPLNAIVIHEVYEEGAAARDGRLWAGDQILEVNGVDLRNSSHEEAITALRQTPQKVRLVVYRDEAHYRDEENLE

| Binder | pKd |
| --- | --- |
| NRVDSKETEC [ADAM17, P78536] | below the threshold |
| AEDEEIQTKM [UNC93A, Q86WB7] | below the threshold |
